# According to the supplement of paper PMC12764529:
# ± gives the half width of the 95% confidence interval.
# Columns and labels:
# [1] = folding stability dG unfold from trypsin proteolysis; higher = more stable
# Procedure, shortened: (§1)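 Sequencing followed digestion of designed mini-proteins with trypsin and chymotrypsin, each at 11 concentrations in threefold dilutions together with a no-protease condition. The mini-proteins were under 80 residues, had no cysteine, sat in a PA-tagged cDNA display construct, and were kept only if AlphaFold2 dimer inter-PAE was above 15. From the counts, Bayesian fitting gave K50, and unfolding free energy was derived against a sequence-predicted unfolded-state K50 and a shared folded-state K50, per protease or combined.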
# [2] = folding stability dG unfold from chymotrypsin proteolysis; higher = more stable
# Procedure, shortened: as §1
# [3] = folding stability dG unfold (combined trypsin and chymotrypsin); higher = more stable
# Procedure, shortened: as §1
Sequence,folding stability dG unfold [1] [kcal/mol],folding stability dG unfold [2] [kcal/mol],folding stability dG unfold [3] [kcal/mol]
SAGGSAGGSMLVLHLPNGKEIPIPPGEFSEDTGVEDIAARIPPEVRRLRIYNEDGTEVEVPIDSAGGSAGGS [r20_161_TrMRF],0.00521 ± 0.4,0.479 ± 0.39,0.32 ± 0.18
SAGGSAGGSMPFKIDVEVERHPEDNMYQVEITFPGNREIPIMVDDPSDPEKAKNIAKEFAKQLSAGGSAGGS [r12_1012_TrROS],0.13 ± 0.082,-0.648 ± 0.7,-0.0883 ± 0.13
SAGGSAGGSMPTLRVKIEVTNPDGEKLELTITVPRDMTLEELKALAEELAKAGYEVRIVEVEPSAGGSAGGS [r12_804_TrROS_Hall],3.61 ± 0.15,2.83 ± 0.069,3.19 ± 0.17
SAGGSAGGSMPVKRELIITVTEPSSGTTRTLVVEVETEEEAEAVVAAVAAVPDRTVTEVRRLASAGGSAGGS [r12_152_JUSTAS],0.109 ± 0.083,1.26 ± 0.022,0.926 ± 0.057
SAGGSAGGSMPVKVITTISRETVPLPNGDPGARYTVTTTVTTDSTVVSTTTTTFSSEAELAAASAGGSAGGS [r12_461_JUSTAS],1.08 ± 0.035,0.854 ± 0.12,0.894 ± 0.084
SAGGSAGGSMRIKTIKVIPQDDGMYSINITFPGVEREIPIPPQMPPDQITEIEIPIYFDGEPPSAGGSAGGS [r12_673_TrROS],-0.257 ± 0.16,0.436 ± 0.12,0.212 ± 0.097
SAGGSAGGSMRLTVEVSSLEEAEKLAEEIEERFDVEIVRVEVEETEEGGLRVTFDVKLHPDLGSAGGSAGGS [r12_577_TrMRF],2.96 ± 0.16,2.94 ± 0.098,2.82 ± 0.18
SAGGSAGGSMRTLKARITLRGPDGVEYRFEFEIPAGSAEDVVAFLKNLPVPPGWEVELEVLDESAGGSAGGS [r20_162_TrMRF],4.42 ± 0.16,5.54 ± 0.088,5.44 ± 0.1
SAGGSAGGSMRVEITEVKEVRGEGGEPRYLVTVRITVPDGKEETFVYEFKTPEELEKLEVELPSAGGSAGGS [r20_130_JUSTAS],2.55 ± 0.062,3.37 ± 0.038,3.13 ± 0.061
SAGGSAGGSMSKPVKITTTRDPNSNVITIQVESEEDVIEFAKKKGINIKIEPTSENTYKLTLESAGGSAGGS [r12_810_JUSTAS],0.0305 ± 0.079,-0.0494 ± 0.36,0.113 ± 0.21
SAGGSAGGSMSTTETTVTEVTITVRSDGKVSREVKVTVTTTTTITPAGGTATVTTTTTRTPLESAGGSAGGS [r12_409_JUSTAS],1.01 ± 0.053,1.3 ± 0.018,1.19 ± 0.051
SAGGSAGGSMSTVSTVTHPDGTPLTVTTTPLPDGTVLATYSAPDGTVVATFDVSTGTTVVVPLSAGGSAGGS [r20_159_JUSTAS],1.39 ± 0.067,1.5 ± 0.079,1.44 ± 0.074
SAGGSAGGSMTAEEIAEKFPGLPPEQIKNIPIERHPDGYMTVNIEHRGPNGNKQEQQVEIPVDSAGGSAGGS [r12_1050_TrROS],0.509 ± 0.04,0.505 ± 0.037,0.483 ± 0.16
SAGGSAGGSMTETVEKAPDGTPVLVLKETEESTGDGGKTILRPSTVLLPPGTVLSTEDEVILESAGGSAGGS [r12_581_JUSTAS],0.944 ± 0.069,1.83 ± 0.071,1.52 ± 0.072
SAGGSAGGSMTFRVEVFNKKTGKVETIEVEGSLDELKALAPPGALVKIEVDGKTITIPAEELKSAGGSAGGS [r20_36_TrROS_Hall],1.67 ± 0.021,1.75 ± 0.059,1.74 ± 0.057
SAGGSAGGSMTIEEIKKLAEELGIEKVEIEKVKDGYYKIKIYNKKTGKKIEIIIKVNKDGKIVSAGGSAGGS [r12_170_TrROS_Hall],2.27 ± 0.17,3.9 ± 0.091,3.61 ± 0.26
SAGGSAGGSMTIPESEFKQMSEEELKKLLLENPEPVTVVTSDPEILERIKKIFEKLGIKITLESAGGSAGGS [r12_97_JUSTAS],2.4 ± 0.11,2.63 ± 0.12,2.59 ± 0.14
SAGGSAGGSMTITVTKVDFPPGLYEGLTIEELRKLLGDENLPIKETPVTVTVTPEKLAALLLSSAGGSAGGS [r12_178_JUSTAS],1.69 ± 0.036,0.778 ± 0.08,1.36 ± 0.096
SAGGSAGGSMTITYDPVSNTYTVNLSLEGGTKTYTVPSLEALKATLKAEGLPWGPPPITTVSASAGGSAGGS [r12_834_JUSTAS],3.43 ± 0.08,5.05 ± 0.063,4.96 ± 0.079
SAGGSAGGSMTIVIPKKTLEKMKPETIKKLLELAKELNTTITMNENAITIPVGKGTEEALKALSAGGSAGGS [r12_945_TrMRF],1.5 ± 0.07,1.05 ± 0.025,1.28 ± 0.073
SAGGSAGGSMTPANVVRIEPSPDGILRVTLTHPDGTVTTVEVSPDNLDIGAPDNVTDVTLAPVSAGGSAGGS [r20_194_TrMRF],0.932 ± 0.026,1.72 ± 0.023,1.44 ± 0.028

Sequence,folding stability dG unfold [1] [kcal/mol],folding stability dG unfold [2] [kcal/mol],folding stability dG unfold [3] [kcal/mol]
SAGGSAGGSMTTTVERSPSGKTTVTETETRKDAAGNEYTLVTTTTFDPNTTTSTTTTTVVPVSSAGGSAGGS [r12_57_JUSTAS],1.07 ± 0.062,1.64 ± 0.048,1.51 ± 0.086
SAGGSAGGSMTVTYTEVGDQLVVTTPDGRRYVITLSGDVTYDPATGTVTVPPGETMTPVPVPASAGGSAGGS [r20_158_JUSTAS],1.61 ± 0.021,2.13 ± 0.025,1.99 ± 0.039
SAGGSAGGSMVEEFLASLPPDATVTVDPSTGVVTVSLPAEGRTLTLTVDTATGTVTETERRPESAGGSAGGS [r12_82_JUSTAS],1.56 ± 0.028,1.762 ± 0.0075,1.71 ± 0.027
SAGGSAGGSMVIRVTVKLPNGEEKVFEIEVSEEELKNMSIEELKKLAEELGLPEDVKIELVPPSAGGSAGGS [r12_742_TrROS_Hall],3.29 ± 0.12,3.29 ± 0.17,3.33 ± 0.19
SAGGSAGGSMVITVDPSLSPEEAVERAKEEVKKEVPESEPVEVTVVIKDPETGKTTEIPVKLDSAGGSAGGS [r12_1051_JUSTAS],0.739 ± 0.047,-1.17 ± 0.23,0.187 ± 0.26
SAGGSAGGSMVTIPTGTEEEVEKVIAELEKKGLKPKKVEKEGNKVTVEFPDGTKVELIIEPGKSAGGSAGGS [r20_93_JUSTAS],1.06 ± 0.058,2.36 ± 0.14,1.95 ± 0.099
SAGGSAGGSMYKVEIEIETSPEGGITIKVTIIPPDGSVIEGNLTPEEVAKRFGFPPPEILELLSAGGSAGGS [r20_235_JUSTAS],2.21 ± 0.049,3.03 ± 0.062,2.48 ± 0.14
SAGGSAGGSMYVVRAVIRRPKAVPPPLAEEEIDIPVADREITAEEIARLFTPPGYELVRIEADSAGGSAGGS [r12_611_TrMRF],-0.177 ± 0.19,-0.36 ± 0.24,-0.225 ± 0.14
SAGGSAGGSNEKKYIYRAKITIPGKEGEKPFEIEFESEEEVIELVEKLFPKENIKLEVEKFELDSAGGSAGG [r6_113_TrMRF],1.83 ± 0.1,2.51 ± 0.12,2.33 ± 0.15
SAGGSAGGSNELLKKLGLKPDQTILVLARPGEIEKLRKEKPIKRIEVTPLPDDLYLYRIEVEGSAGGSAGGS [r12_750_TrMRF],-0.0878 ± 0.16,0.095 ± 0.38,0.192 ± 0.19
SAGGSAGGSNKLVKELAKDPNIKSIFVDTKNKKVYILTDNYLIVIDKNGKIEKIEPISPEKLKSAGGSAGGS [r12_895_TrMRF],0.446 ± 0.098,1.26 ± 0.15,1.16 ± 0.17
SAGGSAGGSNLPAGQEIWFPIEIRIEMEMPVRDNGEPIWRMRMTMEHTIMLSIKVKPASPEDASAGGSAGGS [r20_14_TrROS],3.75 ± 0.31,5.11 ± 0.38,4.88 ± 0.43
SAGGSAGGSNPRYRIVLPISREQLEELGLTPEQVAEAIREAFPSLSPDTRFYFPEDGNLVVVGSAGGSAGGS [r12_50_TrMRF],1.58 ± 0.024,1.16 ± 0.012,1.4 ± 0.026
SAGGSAGGSNWVEIDIPHDDGRDIKITMWPDGYMQIEYPNGKPVYEIPVPPNMSIDEIAERILSAGGSAGGS [r12_990_TrROS],0.641 ± 0.045,0.498 ± 0.067,0.624 ± 0.15
SAGGSAGGSPDVVVPATLTFPLDAVAKAEFYPDGTVKVTFPDNTVALAKVEGGVVTDVRLAPASAGGSAGGS [r12_749_TrMRF],0.0343 ± 0.031,0.0478 ± 0.066,0.11 ± 0.095
SAGGSAGGSPELKISFPGFEGAEVELDPETNIATVRVKLPDKELELKVRIDDDGITIVEVREVSAGGSAGGS [r20_60_TrMRF],1.95 ± 0.07,1.86 ± 0.054,1.94 ± 0.14
SAGGSAGGSPETLTITVKEKPVRIEINGKVIEVKPGDTITIPKELANNIRIEVNEDGSITITPSAGGSAGGS [r20_150_TrROS_Hall],1.92 ± 0.2,1.24 ± 0.11,1.6 ± 0.19
SAGGSAGGSPETVTLTLTVTVKTVTLDPETGELTTTTHTVTLTLTLSKEDLEALLKSPELKKLSAGGSAGGS [r12_1015_TrROS_Hall],1.84 ± 0.05,3.09 ± 0.067,2.76 ± 0.17
SAGGSAGGSPGFIIRVRTWERDPKDGKWKPKRERPLTFPPDDADDFADKLNSESPNVEVEIMPSAGGSAGGS [r12_342_TrROS],-0.0285 ± 0.15,-0.259 ± 0.25,-0.0797 ± 0.15
SAGGSAGGSPGKPKTIPVEMVFFNPEDGYFFEMRSEIYVPPDGNLQIDISIELYPVPPNAPLISAGGSAGGS [r12_116_TrROS],2.33 ± 0.2,1.46 ± 0.039,1.84 ± 0.18
SAGGSAGGSPIVVDSPEDIEKAIEEAIASGAKSIVEVGPNRVRVVFVIPGEPKVFVLELPLNGSAGGSAGGS [r12_368_TrMRF],1.42 ± 0.051,1.93 ± 0.092,1.79 ± 0.11
